In article PMC6557989:

Legend:
[1] = target: Protein H on the surface of Streptococcus pyogenes AP1 (Streptococcus pyogenes (endogenous in strain AP1))
[2] = target: Protein H (Streptococcus pyogenes (strain AP1)); assay: MST; Monolith NT.115; Alexa-488-labelled Protein H constant at 0.5 nM, C4BP at 16 concentrations; 50 mM Tris-HCl pH 7.4, 150 mM NaCl, 10 mM MgCl2, 0.05% Tween-20; 37°C
Target sequence in this assay (P50470 42-345 limits assumed): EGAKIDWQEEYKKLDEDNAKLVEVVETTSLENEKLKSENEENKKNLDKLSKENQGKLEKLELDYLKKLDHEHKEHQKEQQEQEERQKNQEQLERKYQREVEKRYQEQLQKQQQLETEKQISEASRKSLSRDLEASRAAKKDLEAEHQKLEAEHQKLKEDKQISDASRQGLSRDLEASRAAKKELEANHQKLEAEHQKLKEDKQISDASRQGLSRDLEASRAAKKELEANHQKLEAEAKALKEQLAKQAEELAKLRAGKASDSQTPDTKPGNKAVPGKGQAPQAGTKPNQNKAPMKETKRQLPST

[3] = target: Protein H (Streptococcus pyogenes (strain AP1)); assay: SEC; Superose 6 10/30; 5 nmol Protein H alone at 8°C and 28°C; column calibrated with high molecular weight markers; monomer to dimer
[4] = target: C4b-binding protein (C4BP), human, purified from plasma (human) (UniProt P04003); assay: SEC; Superose 6 10/30, PBS, ambient temperature; 0.25 nmol C4BP with varying amounts of Protein H, pre-incubated 30 min at room temperature; area of the free Protein H peak fitted
Sequence of C4b-binding protein (C4BP), human, purified from plasma (human) (P04003 49-597, chain 1 of 2): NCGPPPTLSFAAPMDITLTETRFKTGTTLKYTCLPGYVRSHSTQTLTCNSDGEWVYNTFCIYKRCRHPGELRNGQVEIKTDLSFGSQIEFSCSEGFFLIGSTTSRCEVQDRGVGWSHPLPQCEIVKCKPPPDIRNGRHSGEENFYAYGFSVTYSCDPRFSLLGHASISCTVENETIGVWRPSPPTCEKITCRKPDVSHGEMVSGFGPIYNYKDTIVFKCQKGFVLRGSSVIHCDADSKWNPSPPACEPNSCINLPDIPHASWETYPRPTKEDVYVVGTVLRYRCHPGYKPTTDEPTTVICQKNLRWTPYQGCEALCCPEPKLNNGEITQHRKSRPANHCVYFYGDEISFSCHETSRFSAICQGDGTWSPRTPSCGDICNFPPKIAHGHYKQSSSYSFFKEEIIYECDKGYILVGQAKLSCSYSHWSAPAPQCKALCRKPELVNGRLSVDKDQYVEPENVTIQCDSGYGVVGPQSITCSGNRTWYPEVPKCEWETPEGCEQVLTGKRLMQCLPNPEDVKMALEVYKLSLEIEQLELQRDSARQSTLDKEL
Sequence of C4b-binding protein (C4BP), human, purified from plasma (human) (P20851 18-252, chain 2 of 2, further chain): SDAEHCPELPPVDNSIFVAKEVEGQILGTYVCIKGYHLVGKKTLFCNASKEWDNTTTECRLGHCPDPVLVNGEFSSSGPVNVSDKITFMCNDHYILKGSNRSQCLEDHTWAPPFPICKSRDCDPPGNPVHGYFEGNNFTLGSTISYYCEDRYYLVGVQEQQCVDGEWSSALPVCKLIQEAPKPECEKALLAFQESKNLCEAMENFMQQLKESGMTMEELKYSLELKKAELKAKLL

Sequence of C4b-binding protein (C4BP), human, purified from plasma (P04003 49-597): as the sequence (P04003 49-597, chain 1 of 2) above
Sequence of C4b-binding protein (C4BP), human, purified from plasma (P20851 18-252): as the sequence (P20851 18-252, chain 2 of 2, further chain) above

Protein H on the surface of Streptococcus pyogenes AP1 (natural protein)
aggregation of S. pyogenes AP1 grown overnight at 35°C, 37°C or 41°C (OD600 before against after vortexing); at 41°C all bacteria remained dispersed [1]: 70%

C4b-binding protein (C4BP), human, purified from plasma (from UniProt P04003 49-597; P20851 18-252) (complex)
Kd [2]: 180 nM

Protein H (natural protein)
stoichiometry N [3]: 2
stoichiometry N (Protein H monomers per C4BP) [4]: 26
